Residue numbers refer to the chain shown, from its start.
B1: ACI-7071-810H12-Ab1 (antibody, V domains shown)
VH: QVQLQQSGAELVRPGASVKLSCKALDYTFTDYEMHWVKQTPVHGLEWIGAVHPRSGGTVYNQRFRAKATLTADKSSSTAFIELSSLTSEDSAVYFCTYYGYDEIYWGQGTLVTVSA
VL: DVVMTQISFSLPVSLGDQASISCRSSQSLVHSDGTTYLHWYLQKPGQSPKLLIYKVSNRFSGVPDRFSGSGSGTDFTLKISRVEAEDLGVYFCSQSTHAPYTFGGGTKLEIK
B2: ACI-7071-801H1-Ab1 (antibody, V domains shown)
VH: EVQLQQSGPELVKPGASVKISCKTSGYTFTEYTMHWVKQSHGQSLEWIGGIHPNNGGTIYNQKFKGRATLTVDKSSSTAYMEFRSLTSDDSAVYYCASPCWGQGTSVTVSS
VL: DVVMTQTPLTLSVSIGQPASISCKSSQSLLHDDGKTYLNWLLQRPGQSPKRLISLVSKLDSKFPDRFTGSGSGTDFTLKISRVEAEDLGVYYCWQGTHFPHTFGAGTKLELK
B3: ACI-7071-806H5-Ab1 (antibody, V domains shown)
VH: DVKLEDSGGGLVQPEGSMKLSCVASGFIFSDAWMAWVRQSPEKGLEWVAEIRGRASSHATYYAESVKGRFTISRDDSKSSVYLQMNSLRAEDTGVYYCTRGVNYWGQGTALTVSS
VL: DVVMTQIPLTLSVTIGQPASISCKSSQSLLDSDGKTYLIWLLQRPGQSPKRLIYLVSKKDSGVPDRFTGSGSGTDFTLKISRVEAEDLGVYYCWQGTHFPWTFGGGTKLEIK
B4: ACI-7071-704H9-Ab1 (antibody, V domains shown)
VH: EVQLVESGGDLVKPGGSLKLSCAASGFTFANYAMSWIRQTPEKRLEWVATISGGGLYINYPANLKGRFTISRDNAKNNLYLQMSHLKSEDTAMYYCVKDRGQNWSWFAYWGQGTLVTVSA
VL: QLVLTQSSSASFSLGASAKLTCTLSSQHSTYTIEWYQQQPLKPPKYVMELEKDGSHSTGDGIPDRFSGSSSGADRYLSISNIQPEDEAIYICGVGDTIKEQFVYVFGGGTKVTVL
B5: ACI-7071-707A6-Ab1 (antibody, V domains shown)
VH: EVQLVESGGVLVKPGGSLKLSCAASGFIFSSFSMSWVRQNPEKRLEWVATISAAGRYIYYPDNVKGRFTISRDNAKNNLYLYMSHVRSEDTAIYYCVKDRGLNWSWFAYWGQGTLVTVSA
VL: B4 VL with E51K, N81D, I89V

Each binder was assayed against soluble TDP-43 (human) (assay: SPR).
Sequence of soluble TDP-43 (human) (chain, as listed by the source): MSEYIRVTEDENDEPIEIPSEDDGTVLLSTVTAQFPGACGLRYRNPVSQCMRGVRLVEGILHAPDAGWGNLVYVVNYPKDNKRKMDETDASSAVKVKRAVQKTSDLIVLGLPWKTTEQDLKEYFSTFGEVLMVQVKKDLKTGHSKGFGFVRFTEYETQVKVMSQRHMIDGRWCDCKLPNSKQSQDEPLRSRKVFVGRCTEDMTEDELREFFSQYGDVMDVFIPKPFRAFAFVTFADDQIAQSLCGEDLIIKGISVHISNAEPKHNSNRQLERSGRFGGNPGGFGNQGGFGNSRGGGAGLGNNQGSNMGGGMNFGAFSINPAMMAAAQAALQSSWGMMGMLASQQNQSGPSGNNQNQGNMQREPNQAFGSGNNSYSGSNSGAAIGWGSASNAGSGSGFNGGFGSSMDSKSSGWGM

| Binder | Kd [nM] |
| --- | --- |
| B1 | 0.38 |
| B2 | 0.75 |
| B3 | 0.2 |
| B4 | 0.23 |
| B5 | 0.11 |

From patent US20260285956 (published 2026)
